Here are results for 25 sequences from the supplement of paper PMC9732359.

± gives the uncertainty stated by the source.

A short description of the series: protein stability index of a GFP-peptide fusion (yeast GPS) (PSI 1-4); higher = more stable; sorted into four equal gates, so the index is relative within each strain. The method, boiled down: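 The protein stability index combines read frequencies across sorting gates, each weighted by its gate number and then summed. To obtain those frequencies, a pooled yeast library of GFP fusions to tiled 17-residue yeast protein peptides, on a plasmid also expressing Cherry, was grown to mid-log phase in leucine-free medium. The cells were sorted into four equal gates by GFP/Cherry ratio before plasmid amplification by PCR and Illumina sequencing.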

As to FERFPSPSTSANVPSTA [RPN4], the protein stability index runs as follows: (doa10∆) 1.81 ± 0.046; (pdr5∆) 1.92 ± 0.04; (san1∆) 1.56 ± 0.077; (ubr1∆) 2.36 ± 0.039.
Sequence FESLYNSNDSVFVGSGK [BRR2] registered a protein stability index (doa10∆) of 3.24 ± 0.098, a protein stability index (pdr5∆) of 3.18 ± 0.11, a protein stability index (san1∆) of 2.97 ± 0.13 and a protein stability index (ubr1∆) of 3.15 ± 0.11.
For the sequence FFAAIRFVLSDDYSNLK [SMC3], the protein stability index is, setting by setting: (doa10∆) 2.27 ± 0.091; (pdr5∆) 2.68 ± 0.13; (san1∆) 2.56 ± 0.1; (ubr1∆) 2.7 ± 0.07.
With FGAKPEEQKSSDTSKPA [YJL041W/NSP1], the protein stability index worked out at 3.23 ± 0.083 (doa10∆), 2.91 ± 0.084 (pdr5∆), 3.32 ± 0.088 (san1∆) and 3.11 ± 0.09 (ubr1∆).
As for FGDTKSESKQLGNTSSV [SWI3], the protein stability index was 3.54 ± 0.12 (doa10∆), 3.16 ± 0.081 (pdr5∆), 3.13 ± 0.066 (san1∆) and 3.35 ± 0.05 (ubr1∆).
Regarding FGHIMEDFQVLRLGRGI [YDL088C/ASM4], the protein stability index is 3.04 ± 0.066 (doa10∆), 2.96 ± 0.055 (pdr5∆), 2.49 ± 0.068 (san1∆) and 2.96 ± 0.044 (ubr1∆).
On the same counts, the results for FGRTLASVTKEILGTAQ [RPL12A] are 1.46 ± 0.1, 1.53 ± 0.047, 1.38 ± 0.084 and 1.62 ± 0.078.
As for FGVTKARWPAKSVKFVQ [RPL17A], the protein stability index was determined as 2.63 ± 0.088 (doa10∆), 2.51 ± 0.077 (pdr5∆), 2.55 ± 0.069 (san1∆) and 3.05 ± 0.059 (ubr1∆).
As to FHSTYLMNGVKPFKSFL [FAS1], the protein stability index (doa10∆) was 2.65 ± 0.12, the protein stability index (pdr5∆) worked out at 2.55 ± 0.078, the protein stability index (san1∆) was determined as 3.33 ± 0.15 and the protein stability index (ubr1∆) was 2.87 ± 0.068.
Turning to FIAVGQILPESQWNDSS [SIR3], the protein stability index runs as follows: (doa10∆) 2.27 ± 0.16; (pdr5∆) 3.08 ± 0.14; (san1∆) 2.61 ± 0.24; (ubr1∆) 2.71 ± 0.097.
With FIERNFTPQEIEYCSAQ [FAS2], the protein stability index by setting is: (pdr5∆) 3.54 ± 0.26; (san1∆) 2.72 ± 0.26; (ubr1∆) 2.73 ± 0.22.
Regarding FIKFKLIQQVPPGLDAL [CDC53], the protein stability index (doa10∆) turned out to be 2.29 ± 0.067, the protein stability index (pdr5∆) is 2.13 ± 0.11, the protein stability index (san1∆) was 2.23 ± 0.13 and the protein stability index (ubr1∆) was 2.27 ± 0.095.
With FIRVIGSELVQKYVGEG [RPT1], the protein stability index reads like this: (doa10∆) 2.59 ± 0.21; (pdr5∆) 2.57 ± 0.076; (san1∆) 3 ± 0.083; (ubr1∆) 2.84 ± 0.05.
Take FISSGTSLLDSLISVLE [YJL039C/NUP192]: the protein stability index came to 2 ± 0.056 (doa10∆), 2.27 ± 0.052 (pdr5∆), 2.17 ± 0.08 (san1∆) and 1.91 ± 0.047 (ubr1∆).
Consider FITFSLDDWISIGYETE [IRR1], for which the protein stability index reads like this: (doa10∆) 2.56 ± 0.078; (pdr5∆) 2.61 ± 0.088; (san1∆) 2.65 ± 0.084; (ubr1∆) 2.6 ± 0.071.
In the same order, the values of FITRLAQGLLHLGKGTM [RPN1] are 2.9 ± 0.086, 2.99 ± 0.091, 2.3 ± 0.14 and 2.23 ± 0.074.
In the same order, the values of FIVVPDLLKNAPLFKKN [SMD3] are 2.07 ± 0.053, 1.57 ± 0.042, 1.66 ± 0.11 and 1.32 ± 0.035.
Consider FIYKKVLKEKDVPAYNV [SRB8], for which the protein stability index by setting is: (doa10∆) 2.99 ± 0.086; (pdr5∆) 3.05 ± 0.062; (san1∆) 2.95 ± 0.058; (ubr1∆) 3.13 ± 0.042.
In the case of FKELCYENKDNLTAGII [PRE3], the protein stability index is 2.95 ± 0.044 (doa10∆), 2.95 ± 0.042 (pdr5∆), 2.93 ± 0.034 (san1∆) and 2.83 ± 0.039 (ubr1∆).
For FKGALTIKILPENTAMF [YMR129W/POM152], the protein stability index was 2.32 ± 0.083 (doa10∆), 2.14 ± 0.052 (pdr5∆), 2.33 ± 0.056 (san1∆) and 2.25 ± 0.05 (ubr1∆).
In turn, FKGVIVKIVDKDGIRQV [PRE1] yielded a protein stability index (doa10∆) of 2.26 ± 0.18, a protein stability index (pdr5∆) of 3.11 ± 0.19, a protein stability index (san1∆) of 3.16 ± 0.23 and a protein stability index (ubr1∆) of 3.13 ± 0.092.
On to FKHISVKDFTSLGFNEV [RPO21], for which the protein stability index by setting is: (doa10∆) 3.08 ± 0.21; (pdr5∆) 2.38 ± 0.12; (san1∆) 2 ± 0.14; (ubr1∆) 2.25 ± 0.044.
As for FKLVSTPSSNSNSSELE [MED1], the protein stability index was determined as 1.85 ± 0.058 (doa10∆), 2.29 ± 0.062 (pdr5∆), 2.35 ± 0.057 (san1∆) and 2.84 ± 0.046 (ubr1∆).
In the same order, the values of FKQSNSETFLQFYVKRW [CDC53] are 2.93 ± 0.13, 2.96 ± 0.071, 2.96 ± 0.097 and 2.76 ± 0.1.
In the same order, the values of FKRNAVFVGTIFAGAFV [QCR9] are 1.92 ± 0.064, 1.58 ± 0.054, 1.26 ± 0.12 and 1.67 ± 0.051.
